Data from patent publication US20240301049A1 (Ablynx, published 2024).

T1: cyno IL-6 (cynomolgus monkey, UniProt P79341 28-212, limits assumed)
T1 sequence (looked up): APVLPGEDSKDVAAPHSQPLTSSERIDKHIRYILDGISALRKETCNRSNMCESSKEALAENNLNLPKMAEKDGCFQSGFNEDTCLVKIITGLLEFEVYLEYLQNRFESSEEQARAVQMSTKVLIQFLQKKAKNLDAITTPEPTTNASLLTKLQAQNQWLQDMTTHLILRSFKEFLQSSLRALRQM


Assays:
Test in all cases: cell-based or functional assay
cyno TNF-α = cyno TNF-α (cynomolgus monkey, UniProt P79337 77-233)
human IL-6 = human IL-6 (human, UniProt P05231 30-212)
cyno IL-6 = biological target: T1, cyno IL-6
human TNF-α = human TNF-α (human, UniProt P01375 77-233)
Chain of human TNF-α (P01375 77-233 limits assumed): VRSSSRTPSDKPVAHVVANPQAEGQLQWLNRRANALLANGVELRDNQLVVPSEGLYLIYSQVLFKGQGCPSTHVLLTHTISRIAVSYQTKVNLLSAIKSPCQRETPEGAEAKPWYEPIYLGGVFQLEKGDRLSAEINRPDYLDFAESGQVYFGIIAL

Chain of cyno TNF-α (P79337 77-233 limits assumed): as the sequence (P01375 77-233 limits assumed) above, with L37V, R44T, T72N, R138L counted along it

Row | Binder | Ratio IC50 cyno TNFα/hTNFα (cyno TNF-α) [ratio] | IC50 hIL-6 TF1 proliferation assay (human IL-6) [nM] | Ratio IC50 cyno IL-6/hIL-6 (cyno IL-6) [ratio] | IC50 hTNF-α Nfkb assay (human TNF-α) [nM]
1 | F027200168 (bispecific antibody) EVQLVESGGGVVQPGGSLRLSCAASGIIFSINAMGWYRQAPGKQRELVADIFPFGSTEYADSVKGRFTISRDNAKNTVYLQMNSLRPEDTALYYCHSYDPRGDDYWGQGTLVTVSSGGGGSGGGSEVQLVESGGGVVQPGGSLRLSCAASGFTFRSFGMSWVRQAPGKGPEWVSSISGSGSDTLYADSVKGRFTISRDNSKNTLYLQMNSLRPEDTALYYCTIGGSLSRSSQGTLVTVSSGGGGSGGGSEVQLVESGGGVVQPGGSLRLSCAASGRTFSSYVMGWFRQAPGKEREFVSTINWAGSRGYYADSVKGRFTISRDNAKNTVYLQMNSLRPEDTALYYCAASAGGFLVPRVGQGYDYWGQGTLVTVSSGGGGSGGGSEVQLVESGGGVVQPGGSLRLSCTASGFTFSTADMGWFRQAPGKGREFVARISGIDGTTYYDEPVKGRFTISRDNSKNTVYLQMNSLRPEDTALYYCRSPRYADQWSAYDYWGQGTLVKVSS | 3.3 | 0.966 | 1.6 | 0.14
2 | F027200154 (bispecific antibody) EVQLVESGGGVVQPGGSLRLSCTASGFTFSTADMGWFRQAPGKGREFVARISGIDGTTYYDEPVKGRFTISRDNSKNTVYLQMNSLRPEDTALYYCRSPRYADQWSAYDYWGQGTLVKVSSGGGGSGGGSEVQLVESGGGVVQPGGSLRLSCAASGFTFRSFGMSWVRQAPGKGPEWVSSISGSGSDTLYADSVKGRFTISRDNSKNTLYLQMNSLRPEDTALYYCTIGGSLSRSSQGTLVTVSSGGGGSGGGSEVQLVESGGGVVQPGGSLRLSCAASGIIFSINAMGWYRQAPGKQRELVADIFPFGSTEYADSVKGRFTISRDNAKNTVYLQMNSLRPEDTALYYCHSYDPRGDDYWGQGTLVTVSSGGGGSGGGSDVQLVESGGGVVQPGGSLRLSCAASGRTFSNYAMAWFRQAPGKEREFVAVISYAGGRTYYADSVKGRFTISRDNAKNTVYLQMNSLRPEDTALYYCAAVDSPLIATHPRGYDYWGQGTLVTVSS | 2.8 | 0.415 | 2.1 | 0.164
3 | F027200153 (bispecific antibody) EVQLVESGGGVVQPGGSLRLSCTASGFTFSTADMGWFRQAPGKGREFVARISGIDGTTYYDEPVKGRFTISRDNSKNTVYLQMNSLRPEDTALYYCRSPRYADQWSAYDYWGQGTLVKVSSGGGGSGGGSEVQLVESGGGVVQPGGSLRLSCAASGFTFRSFGMSWVRQAPGKGPEWVSSISGSGSDTLYADSVKGRFTISRDNSKNTLYLQMNSLRPEDTALYYCTIGGSLSRSSQGTLVTVSSGGGGSGGGSEVQLVESGGGVVQPGGSLRLSCAASGIIFSINAMGWYRQAPGKQRELVADIFPFGSTEYADSVKGRFTISRDNAKNTVYLQMNSLRPEDTALYYCHSYDPRGDDYWGQGTLVTVSSGGGGSGGGSEVQLVESGGGVVQPGGSLRLSCAASGRTFSSYVMGWFRQAPGKEREFVSTINWAGSRGYYADSVKGRFTISRDNAKNTVYLQMNSLRPEDTALYYCAASAGGFLVPRVGQGYDYWGQGTLVTVSS | 2.7 | 1.03 | 2.5 | 0.139
4 | F027200167 (bispecific antibody) EVQLVESGGGVVQPGGSLRLSCAASGIIFSINAMGWYRQAPGKQRELVADIFPFGSTEYADSVKGRFTISRDNAKNTVYLQMNSLRPEDTALYYCHSYDPRGDDYWGQGTLVTVSSGGGGSGGGSEVQLVESGGGVVQPGGSLRLSCAASGRTFSSYVMGWFRQAPGKEREFVSTINWAGSRGYYADSVKGRFTISRDNAKNTVYLQMNSLRPEDTALYYCAASAGGFLVPRVGQGYDYWGQGTLVTVSSGGGGSGGGSEVQLVESGGGVVQPGGSLRLSCAASGFTFRSFGMSWVRQAPGKGPEWVSSISGSGSDTLYADSVKGRFTISRDNSKNTLYLQMNSLRPEDTALYYCTIGGSLSRSSQGTLVTVSSGGGGSGGGSEVQLVESGGGVVQPGGSLRLSCTASGFTFSTADMGWFRQAPGKGREFVARISGIDGTTYYDEPVKGRFTISRDNSKNTVYLQMNSLRPEDTALYYCRSPRYADQWSAYDYWGQGTLVKVSS | 3.1 | 1.27 | 2.5 | 0.171

Next, values leading:

Row | Ratio IC50 cyno TNFα/hTNFα (cyno TNF-α) [ratio] | IC50 hIL-6 TF1 proliferation assay (human IL-6) [nM] | Ratio IC50 cyno IL-6/hIL-6 (cyno IL-6) [ratio] | IC50 hTNF-α Nfkb assay (human TNF-α) [nM] | Binder
5 | 3.1 | 0.293 | 1.1 | 0.061 | F027201028 (bispecific antibody) DVQLVESGGGVVQPGGSLRLSCAASGRTFSNYAMAWFRQAPGKEREFVAVISYAGGRTYYADSVKGRFTISRDNAKNTVYLQMNSLRPEDTALYYCAAVDSPLIATHPRGYDYWGQGTLVTVSSGGGGSGGGSEVQLVESGGGVVQPGGSLRLSCAASGIIFSINAMGWYRQAPGKQRELVADIFPFGSTEYADSVKGRFTISRDNAKNTVYLQMNSLRPEDTALYYCHSYDPRGDDYWGQGTLVTVSSGGGGSGGGSEVQLVESGGGVVQPGGSLRLSCAASGFTFRSFGMSWVRQAPGKGPEWVSSISGSGSDTLYADSVKGRFTISRDNSKNTLYLQMNSLRPEDTALYYCTIGGSLSRSSQGTLVTVSSGGGGSGGGSEVQLVESGGGVVQPGGSLRLSCTASGFTFSTADMGWFRQAPGKGREFVARISGIDGTTYYDEPVKGRFTISRDNSKNTVYLQMNSLRPEDTALYYCRSPRYADQWSAYDYWGQGTLVKVSS
6 |  | 0.143 | 29.4 |  | F027200987 (bispecific antibody) EVQLVESGGGVVQPGGSLRLSCAASGFSLDYYGVGWFRQAPGKEREGVSCISSSEGDTYYADSVKGRFTISRDNAKNTVYLQMNSLRPEDTALYYCATDLSDYGVCSRWPSPYDYWGQGTLVKVSSGGGGSGGGSEVQLVESGGGVVQPGGSLRLSCAASGFTFRSFGMSWVRQAPGKGPEWVSSISGSGSDTLYADSVKGRFTISRDNSKNTLYLQMNSLRPEDTALYYCTIGGSLSRSSQGTLVTVSSGGGGSGGGSEVQLVESGGGVVQPGGSLRLSCAASGFTLAYYAIGWFRQAPGKEREGVSCISGSVGTTYYADSVKGRFTISRDNAKNTVYLQMNSLRPEDTALYYCVRSSWFDCGVQGRDLGNEYDYRGQGTLVTVSSGGGGSGGGSEVQLVESGGGVVQPGGSLRLSCTASGFTFSTADMGWFRQAPGKGREFVARISGIDGTTYYDEPVKGRFTISRDNSKNTVYLQMNSLRPEDTALYYCRSPRYADQWSAYDYWGQGTLVKVSS
7 |  | 0.127 | 38.3 |  | F027200989 (bispecific antibody) EVQLVESGGGVVQPGGSLRLSCTASGFTFSTADMGWFRQAPGKGREFVARISGIDGTTYYDEPVKGRFTISRDNSKNTVYLQMNSLRPEDTALYYCRSPRYADQWSAYDYWGQGTLVKVSSGGGGSGGGSEVQLVESGGGVVQPGGSLRLSCAASGFSLDYYGVGWFRQAPGKEREGVSCISSSEGDTYYADSVKGRFTISRDNAKNTVYLQMNSLRPEDTALYYCATDLSDYGVCSRWPSPYDYWGQGTLVKVSSGGGGSGGGSEVQLVESGGGVVQPGGSLRLSCAASGFTFRSFGMSWVRQAPGKGPEWVSSISGSGSDTLYADSVKGRFTISRDNSKNTLYLQMNSLRPEDTALYYCTIGGSLSRSSQGTLVTVSSGGGGSGGGSEVQLVESGGGVVQPGGSLRLSCAASGFTLAYYAIGWFRQAPGKEREGVSCISGSVGTTYYADSVKGRFTISRDNAKNTVYLQMNSLRPEDTALYYCVRSSWFDCGVQGRDLGNEYDYRGQGTLVTVSS
8 | 2.5 | 0.317 | 0.6 | 0.0603 | F027201027 (bispecific antibody) DVQLVESGGGVVQPGGSLRLSCAASGRTFSNYAMAWFRQAPGKEREFVAVISYAGGRTYYADSVKGRFTISRDNAKNTVYLQMNSLRPEDTALYYCAAVDSPLIATHPRGYDYWGQGTLVTVSSGGGGSGGGSEVQLVESGGGVVQPGGSLRLSCAASGFTFRSFGMSWVRQAPGKGPEWVSSISGSGSDTLYADSVKGRFTISRDNSKNTLYLQMNSLRPEDTALYYCTIGGSLSRSSQGTLVTVSSGGGGSGGGSEVQLVESGGGVVQPGGSLRLSCAASGIIFSINAMGWYRQAPGKQRELVADIFPFGSTEYADSVKGRFTISRDNAKNTVYLQMNSLRPEDTALYYCHSYDPRGDDYWGQGTLVTVSSGGGGSGGGSEVQLVESGGGVVQPGGSLRLSCTASGFTFSTADMGWFRQAPGKGREFVARISGIDGTTYYDEPVKGRFTISRDNSKNTVYLQMNSLRPEDTALYYCRSPRYADQWSAYDYWGQGTLVKVSS
9 | 2.2 | 0.303 | 1.2 | 0.0852 | F027201026 (bispecific antibody) EVQLVESGGGVVQPGGSLRLSCTASGFTFSTADMGWFRQAPGKGREFVARISGIDGTTYYDEPVKGRFTISRDNSKNTVYLQMNSLRPEDTALYYCRSPRYADQWSAYDYWGQGTLVKVSSGGGGSGGGSEVQLVESGGGVVQPGGSLRLSCAASGFTFRSFGMSWVRQAPGKGPEWVSSISGSGSDTLYADSVKGRFTISRDNSKNTLYLQMNSLRPEDTALYYCTIGGSLSRSSQGTLVTVSSGGGGSGGGSDVQLVESGGGVVQPGGSLRLSCAASGRTFSNYAMAWFRQAPGKEREFVAVISYAGGRTYYADSVKGRFTISRDNAKNTVYLQMNSLRPEDTALYYCAAVDSPLIATHPRGYDYWGQGTLVTVSSGGGGSGGGSEVQLVESGGGVVQPGGSLRLSCAASGIIFSINAMGWYRQAPGKQRELVADIFPFGSTEYADSVKGRFTISRDNAKNTVYLQMNSLRPEDTALYYCHSYDPRGDDYWGQGTLVTVSS
